Test results taken from article PMC5741291 (2017).

Biological target: Actin (F-actin, skeletal muscle) (Oryctolagus cuniculus, UniProt P68135)
Test: stopped-flow light scattering

B1: Myosin IIIA motor domain (p-huM3AMD) 311-1058 (protein)
chain: MGGTEKARRERIHTKKGNFNRPLISNLKDVDDLATLEILDENTVSEQLEKCYSRDQIYVYVGDILIALNPFQSLGLYSTKHSKLYIGSKRTASPPHIFAMADLGYQSMITYNSDQCIVISGESGAGKTENAHLLVQQLTVLGKANNRTLQEKILQVNNLVEAFGNACTIINDNSSRFGKYLEMKFTSSGAVVGAQISEYLLEKSRVIHQAIGEKNFHIFYYIYAGLAEKKKLAHYKLPENKPPRYLQNDHLRTVQDIMNNSFYKSQYELIEQCFKVIGFTMEQLGSIYSILAAILNVGNIEFSSVATEHQIDKSHISNHTALENCASLLCIRADELQEALTSHCVVTRGETIIRPNTVEKATDVRDAMAKTLYGRLFSWIVNCINSLLKHDSSPSGNGDELSIGILDIFGFENFKKNSFEQLCINIANEQIQYYYNQHVFAWEQNEYLNEDVDARVIEYEDNWPLLDMFLQKPMGLLSLLDEESRFPKATDQTLVEKFEGNLKSQYFWRPKRMELSFGIHHYAGKVLYNASGFLAKNRDTLPTDIVLLLRSSDNSVIRQLVNHPLTKTGNLPHSKTKNVINYQMRTSEKLINLAKGDTGEATRHARETTNMKTQTVASYFRYSLMDLLSKMVVGQPHFVRCIKPNSERQARKYDKEKVLLQLRYTGILETARIRRLGFSHRILFANFIKRYYLLCYKSSEEPRMSPDTCATILEKAGLDNWALGKTKVFLKYYHVEQLNLMRKEAIDK
modifications: phosphorylated by myosin IIIA kinase domain, MgADP
B1 was tested. Which Kd did it give?
The Kd was 1070 nM.
